Data reported in PMC11564096, “Structural and mechanistic insights into Streptococcus pneumoniae NADPH oxidase” (Nature Structural & Molecular Biology, 2024).

Substrate: NC(=O)C1=CN([C@@H]2O[C@H](COP(=O)(O)OP(=O)(O)OC[C@H]3O[C@@H](n4cnc5c(N)ncnc54)[C@H](O)[C@@H]3O)[C@@H](O)[C@H]2O)C=CC1
Assay: purified protein
Type: biochemical, Streptococcus pneumoniae
Settings: 100 µM bovine cytochrome c, 0.1 µM SpNOX, 1 µM FAD, 50 mM Tris pH 7.0, 250 mM NaCl, room temperature, aerobic

B1: SpNOX (Streptococcus pneumoniae NOX) (Streptococcus pneumoniae R6) (protein)
chain: EFSMKSVKGLLFIIASFILTLLTWMNTSPQFMIPGLALTSLSLTFILATRLPLLESWFHSLEKVYTVHKFTAFLSIILLIFHNFSMGGLWGSRLAAQFGNLAIYIFASIILVAYLGKYIQYEAWRWIHRLVYLAYILGLFHIYMIMGNRLLTFNLLSFLVGSYALLGLLAGFYIIFLYQKISFPYLGKITHLKRLNHDTREIQIHLSRPFNYQSGQFAFLKIFQEGFESAPHPFSISGGHGQTLYFTVKTSGDHTKNIYDNLQAGSKVTLDRAYGHMIIEEGRENQVWIAGGIGITPFISYIREHPILDKQVHFYYSFRGDENAVYLDLLRNYAQKNPNFELHLIDSTKDGYLNFEQKEVPEHATVYMCGPISMMKALAKQIKKQNPKTELIYEGFKFK
notes: residues 2-400, N-terminal 6xHis-PreScission tag cleaved, E. coli C41(DE3), LMNG micelles, monomer, 46 kDa, two b-type hemes and FAD
  Km: 3.41 µM
  kcat: 3.33 s⁻¹
